One assay concerns the target T1, murine recombinant PVR (mouse).
T1 construct: also called mouse PVR
As to the kind of experiment: ELISA: capture mCD115/PVR (so in the source); detection anti-Fc-HRP.

Another assay has as its target T2, CHOK1/mLTβR (mouse, UniProt P50284).
T2 construct: expressed on the surface of stably transfected CHO-K1 cells; also called cell surface mouse LTβR on CHO-K1/mLTβR cells
In words: flow cytometry on CHOK1/mLTβR cells. A general note: A flow cytometer gives signals particle by particle.

The target of a further assay is T3, anti-H&L.
T3 construct: also called capture antibody of the Fc ELISA panel
In words: ELISA: capture anti-H&L; detection anti-Fc-HRP. Background: An ELISA detects its analyte on a solid surface through an enzyme-linked reagent.

For another assay, the target named is T4, murine recombinant HVEM (mouse, UniProt Q80WM9 39-206).
T4 construct: also called mouse HVEM
T4 sequence (looked up): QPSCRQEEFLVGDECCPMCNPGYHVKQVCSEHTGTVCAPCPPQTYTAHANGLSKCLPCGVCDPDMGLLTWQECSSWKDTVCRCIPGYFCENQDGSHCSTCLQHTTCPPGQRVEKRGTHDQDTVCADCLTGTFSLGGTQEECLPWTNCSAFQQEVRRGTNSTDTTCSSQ
As to the kind of experiment: ELISA on recombinant murine targets.

In another assay the target is T5, murine recombinant LTβR (mouse, UniProt P50284 31-223).
T5 construct: also called mouse LTβR; printed LOUR
T5 sequence (P50284 31-223): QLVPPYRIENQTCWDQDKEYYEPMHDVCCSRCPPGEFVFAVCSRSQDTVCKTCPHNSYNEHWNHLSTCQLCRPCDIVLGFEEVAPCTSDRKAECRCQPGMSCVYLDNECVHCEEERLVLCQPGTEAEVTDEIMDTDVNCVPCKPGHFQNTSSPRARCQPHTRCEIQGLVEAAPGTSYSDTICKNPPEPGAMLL
In words: ELISA: capture mLTβR-His; detection anti-mLIGHT-Bio.

The next assay has as its target T6, mouse CD47-Fc (mouse, UniProt Q61735 19-140, limits assumed).
T6 construct: not shown: Fc; not described
T6 sequence (looked up): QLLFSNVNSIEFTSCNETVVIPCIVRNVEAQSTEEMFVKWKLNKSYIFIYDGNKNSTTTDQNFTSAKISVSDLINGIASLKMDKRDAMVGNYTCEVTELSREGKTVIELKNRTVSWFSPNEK
As to the kind of experiment: MSD dual-binding sandwich: coat mCD47-Fc (Acro); detect m41BB-His (Acro); anti-His Biotin + Streptavidin Sulfo. The procedure:
To understand whether the mouse SIRPα-Fc-4-1BBL chimeric protein can contemporaneously bind to mouse 4-1BB and CD47, mouse CD47-Fc was coated on plates and increasing amounts of the mSIRPα-Fc-4-1BBL, or PD-1-Fc-4-1BBL chimeric proteins were added to the plates for capture by the plate-bound mouse CD47-Fc. The PD-1-Fc-4-1BBL chimeric protein was used as a negative control. Then, mouse 4-1BB-His was added to the plate for capture by any chimeric protein, which was captured in turn by the mouse CD47-Fc protein. An anti-His-biotin and streptavidin-SULFO-TAG were used for detection. Binding was assayed using an electrochemiluminescence (ECL) readout.

The next assay addresses T7, mouse CD47-His (mouse, UniProt Q61735 19-140, limits assumed).
T7 construct: not shown: His tag
T7 sequence (looked up): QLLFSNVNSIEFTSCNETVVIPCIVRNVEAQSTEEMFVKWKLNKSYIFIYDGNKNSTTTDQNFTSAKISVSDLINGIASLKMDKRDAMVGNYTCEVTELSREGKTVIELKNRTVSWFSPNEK
In words: MSD: coat mCD47-His (Acro); detection anti-mouse Sulfo (MSD). As for the experimental part:
Mouse CD47-His was coated on plates and increasing amounts of the mSIRPα-Fc-4-1BBL or mSIRPα-Fc-CD40L chimeric proteins were added to the plates for capture by the plate-bound mouse CD47-His. The mSIRPα-Fc-CD40L chimeric protein was used as a positive control for binding to mouse CD47. Binding of the chimeric proteins to CD47-His was detected using an anti-mouse SULFO-TAG antibody. Binding was assayed using an electrochemiluminescence (ECL) readout.

For the next assay, the target named is T8, mouse 4-1BB-His (mouse, UniProt P20334 24-187).
T8 construct: not shown: His tag
T8 sequence (looked up): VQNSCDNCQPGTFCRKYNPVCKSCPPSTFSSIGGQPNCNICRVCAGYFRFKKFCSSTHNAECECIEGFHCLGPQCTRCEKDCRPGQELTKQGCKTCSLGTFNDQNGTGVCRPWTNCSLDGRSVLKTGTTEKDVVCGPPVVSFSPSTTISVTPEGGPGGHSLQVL
In words: MSD: coat m41BB-His (Acro); detection anti-mouse Sulfo (MSD). The procedure:
Mouse 4-1BB-His was coated on plates and increasing amounts of the mSIRPα-Fc-4-1BBL, or mSIRPα-Fc-CD40L chimeric proteins were added to the plates for capture by the plate-bound mouse 4-1BB-His. The mSIRPα-Fc-CD40L chimeric protein was used as a negative control for binding to mouse 4-1BB. Binding of the chimeric proteins to 4-1BB-His was detected using an anti-mouse-SULFO-TAG antibody. Binding was assayed using an electrochemiluminescence (ECL) readout.

The results in this text go back to patent US20240016892A1 (SHATTUCK LABS, published 2024).

The EC50 (read off the curve) is the concentration needed to bring the measured effect to its halfway point. The EC50 is the concentration that produces a half-maximal response.

T2 sequence (P50284 31-415 limits assumed): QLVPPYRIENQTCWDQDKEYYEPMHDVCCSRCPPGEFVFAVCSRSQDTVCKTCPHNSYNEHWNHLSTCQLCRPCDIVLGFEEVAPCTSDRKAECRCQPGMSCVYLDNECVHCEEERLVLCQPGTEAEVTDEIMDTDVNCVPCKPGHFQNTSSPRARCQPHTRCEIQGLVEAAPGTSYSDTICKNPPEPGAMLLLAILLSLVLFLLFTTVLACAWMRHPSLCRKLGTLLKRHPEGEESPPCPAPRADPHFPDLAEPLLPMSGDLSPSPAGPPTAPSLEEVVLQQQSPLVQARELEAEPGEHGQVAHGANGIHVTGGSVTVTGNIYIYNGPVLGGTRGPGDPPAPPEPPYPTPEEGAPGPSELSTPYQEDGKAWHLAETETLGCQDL

B1: mouse TIGIT-Fc-LIGHT chimeric protein (Fc fusion)
chain: TIDTKRNISAEEGGSVILQCHFSSDTAEVTQVDWKQQDQLLAIYSVDLGWHVASVFSDRVVPGPSLGLTFQSLTMNDTGEYFCTYHTYPGGIYKGRIFLKVQESSDDRNGLAQFQTAPLGVPRDCGCKPCICTVPEVSSVFIFPPKPKDVLTITLTPKVTCVVVDISKDDPEVQFSWFVDDVEVHTAQTQPREEQFNSTFRSVSELPIMHQDWLNGKEFKCRVNSAAFPAPIEKTISKTKGRPKAPQVYTIPPPKEQMAKDKVSLTCMITDFFPEDITVEWQWNGQPAENYKNTQPIMDTDGSYFVYSKLNVQKSNWEAGNTFTCSVLHEGLHNHHTEKSLSHSPGKIEGRMDLHQRLGDIVAHLPDGGKGSWEKLIQDQRSHQANPAAHLTGANASLIGIGGPLLWETRLGLAFLRGLTYHDGALVTMEPGYYYVYSKVQLSGVGCPQGLANGLPITHGLYKRTSRYPKELELLVSRRSPCGRANSSRVWWDSSFLGGVVHLEAGEEVVVRVPGNRLVRPRDGTRSYFGAFMV
notes: also called mTIGIT-Fc-LIGHT; murine TIGIT-Fc-LIGHT chimeric protein
Consider B1, for which the “EC50 (read off the curve)” value in the assay with murine recombinant PVR was ~5 nM; with anti-H&L it was ~4 nM. Besides, the binding result with CHOK1/mLTβR, with murine recombinant HVEM and with murine recombinant LTβR was “binds” in each case.

B2: mouse SIRPα-Fc-4-1BBL chimeric protein (Fc fusion)
chain: KELKVTQPEKSVSVAAGDSTVLNCTLTSLLPVGPIKWYRGVGQSRLLIYSFTGEHFPRVTNVSDATKRNNMDFSIRISNVTPEDAGTYYCVKFQKGPSEPDTEIQSGGGTEVYVLAKPSPPEVSGPADRGIPDQKVNFTCKSHGFSPRNITLKWFKDGQELHHLETTVNPSGKNVSYNISSTVRVVLNSMDVHSKVICEVAHITLDRSPLRGIANLSNFIRVSPTVKVTQQSPTSMNQVNLTCRAERFYPEDLQLIWLENGNVSRNDTPKNLTKNTDGTYNYTSLFLVNSSAHREDVVFTCQVKHDQQPAITRNHTVLGLAHSSDQGSMQTFPGNNATHNWNVPRDCGCKPCICTVPEVSSVFIFPPKPKDVLTITLTPKVTCVVVDISKDDPEVQFSWFVDDVEVHTAQTQPREEQFNSTFRSVSELPIMHQDWLNGKEFKCRVNSAAFPAPIEKTISKTKGRPKAPQVYTIPPPKEQMAKDKVSLTCMITDFFPEDITVEWQWNGQPAENYKNTQPIMDTDGSYFVYSKLNVQKSNWEAGNTFTCSVLHEGLHNHHTEKSLSHSPGIIEGRMDRTEPRPALTITTSPNLGTRENNADQVTPVSHIGCPNTTQQGSPVFAKLLAKNQASLCNTTLNWHSQDGAGSSYLSQGLRYEEDKKELVVDSPGLYYVFLELKLSPTFTNTGHKVQGWVSLVLQAKPQVDDFDNLALTVELFPCSMENKLVDRSWSQLLLLKAGHRLSVGLRAYLHGAQDAYRDWELSYPNTTSFGLFLVKPDNPWE
notes: also called mSIRPα-Fc-4-1BBL
For B2, the figures for the EC50 with mouse CD47-Fc, in the assay with mouse CD47-His and in the assay with mouse 4-1BB-His were 22.4 nM, 0.609 nM and 0.674 nM, respectively.
